The data set “cryo-EM structure” deals with the molecule itself. The experiment in a line: cryo-EM structure.
The data set “negative-staining EM” concerns the molecule itself. The experiment in a line: negative-staining EM.

This note sets out measurements from PMC7615931 (Science (New York, N.Y.), 2024).

B1: β-arrestin 2 (βarr2), wild-type, full-length (natural protein, UniProt P32120 1-420, looked up)
chain: MGEKPGTRVFKKSSPNCKLTVYLGKRDFVDHLDKVDPVDGVVLVDPDYLKDRKVFVTLTCAFRYGREDLDVLGLSFRKDLFIANYQAFPPTPNPPRPPTRLQERLLRKLGQHAHPFFFTIPQNLPCSVTLQPGPEDTGKACGVDFEIRAFCAKSLEEKSHKRNSVRLVIRKVQFAPEKPGPQPSAETTRHFLMSDRSLHLEASLDKELYYHGEPLNVNVHVTNNSTKTVKKIKVSVRQYADICLFSTAQYKCPVAQVEQDDQVSPSSTFCKVYTITPLLSNNREKRGLALDGKLKHEDTNLASSTIVKEGANKEVLGILVSYRVKVKLVVSRGGDVSVELPFVLMHPKPHDHIALPRPQSAATHPPTLLPSAVPETDAPVDTNLIEFETNYATDDDIVFEDFARLRLKGLKDEDYDDQFC
As to B1, the stoichiometry N (usually the number of molecules, sites or subunits per partner or assembly) is 2 in “cryo-EM structure” and 3 in “negative-staining EM”.
